B1: His6-MBP-zfSMNwt (natural protein, zebrafish, UniProt Q9W6S8 1-281, looked up)
chain: MANGAEDVVFCRGTGQSDDSDIWDDTALIKAYDKAVASFKNALKGEDGATPQENDNPGKKRKNNKKNKSRKRCNAAPDKEWQVGDSCYAFWSEDGNLYTATITSVDQEKGTCVVFYTDYGNEEEQNLSDLLTEPPDMDEDALKTANVKETESSTEESDRSFTPQKSGHAKHKSKSNFPMGPPSWFPSFPPGPPPPPPHFKKMDGRRGEGPGPSFPGWPPMIPLGPPMIPPPPPMSPDFGEDDEALGSMLISWYMSGYHTGYYMGLRQGRKEAAASKKSHRK
notes: Survival motor neuron protein (Smn), zebrafish, wild type; The order of the tags is read from the printed name only; also called zebrafish Smn; zebrafish-Smn only control; source: E. coli BL21(DE3), purified (NiNTA); not shown: His6, N-terminal, kept; MBP, N-terminal, kept
B2: GST-hSMN (252-284) (domain or fragment, human, UniProt Q16637 252-284, looked up)
chain: DSLDDADALGSMLISWYMSGYHTGYYMGFRQNQ
notes: The N-terminal place of GST is read from the printed name only; also called human SMN; human-SMN only control; source: E. coli BL21(DE3), purified (NiNTA); not shown: GST, N-terminal, kept

Data set [1] concerns the molecule itself. The data set is described as follows: SEC; Superdex 200 Increase 10/300 GL; purified fusion proteins run alone and as a mixture; fractions analysed by SDS-PAGE with Coomassie staining.
In the data set “His6-MBP-zfSMNwt” the target is B1. The data set is described as above. As to conditions: both partners purified.

Regarding B1, the binding result in data set [1] is listed as “binds”.

Take B2: the binding result (in data set [1]; with His6-MBP-zfSMNwt) was “binds” throughout.

The values above are taken from PMC8385639, “Fluorescence Correlation Spectroscopy Reveals Survival Motor Neuron Oligomerization but No Active Transport in Motor Axons of a Zebrafish Model for Spinal Muscular Atrophy” (Frontiers in Cell and Developmental Biology, 2021).
